Source: the Human Domainome abundance scans (Beltran et al. 2025)

B1: Friend leukemia integration 1 transcription factor, residues 116 to 197; numbered along this chain, Q01543 (parent)
chain: NMTTNERRVIVPADPTLWTQEHVRQWLEWAIKEYSLMEIDTSFFQNMDGKELCKMNKEDFLRATTLYNTEVLLSHLSYLRES

Variants of: B1
Assay: abundance fitness (aPCA) (normalised: wild type 0, dead -1); higher = more abundant; growth selection in yeast, the domain comes from the species named
Conditions: Homo sapiens

Abundance fitness of substitutions, site by site:
T19: L -0.243; N -0.263; A -0.309; V -0.351; P -1.02; F -0.79; H 0.12; I -0.529; G -0.194; C -0.296; E -0.597; S -0.113; W -0.796; M -0.39; K -0.12; R -0.12
R24: L -0.011; K -0.09; Y -0.278; I -0.183; G 0.039; H -0.161; T -0.058; S 0.093; P -0.804; E -0.348; W 0.054; C -0.347; M -0.131; F -0.044; A 0.106
Q20: M 0.046; L -0.289; E -0.195; W -0.123; Y -0.109; S 0.047; G -0.057; N 0.218; P -0.454; R -0.077; H 0.018; C -0.176; A -0.126; D -0.054; V -0.137; T -0.029; K 0.138
W18: Q -0.891; M -0.616; S -0.981; D -0.803; R -0.563; L -0.868; G -0.458; P -0.753; F -0.719; Y -0.759; A -0.879; K -1.18
W26: E -0.921; K -0.813; C -0.626
E21: K -0.243; I -0.474; N -0.091; A 0.017; S -0.086; V -0.111; T -0.131; C -0.371; D -0.084; G -0.151; W -0.295; M -0.045; L -0.096; Q 0.066
T16: P -0.277; D -0.082; S -0.087; V -0.052; W -0.021; G -0.142; N -0.22; E -0.159; C -0.357; L -0.108; K -0.057; F 0; M -0.022; I -0.036; R -0.139; Q -0.306; A 0.086; Y -0.166
H22: S -0.246; D 0.116; R -0.266; V -0.17; C -0.529; M 0.028; N -0.007; Q 0.045; I -0.201; E 0.062; Y -0.365; T -0.274; K -0.199; G -0.106; P -1.02; L -0.386; A -0.318
P15: R -0.92; V -0.056; Y -0.512; S -0.565; T -0.42; W -0.942
V23: R -0.74; W -0.814; C -0.752; F -0.686; Q -0.92; L -0.175; I -0.386; D -0.759; S -0.538; M -0.844; P -0.044; K -0.752; G -0.931; A -0.632; T -0.23
L17: W -0.203; A 0.032; M -0.328; Y -0.096; F -0.132; I 0.024; R -0.042; K -0.085; E 0.087; Q 0.037; D 0.224; V 0.018; G 0.09; N -0.289; S 0.008; T -0.011; H 0.081
Q25: K 0.041; L -0.093; M -0.187; E -0.334; F -0.106; Y -0.143; H -0.083; G -0.039; N 0.092; C 0.036; W -0.251; A -0.066; S -0.246; V 0.078; R -0.006; T -0.045; P -0.915
